Data published in publication PMC9454738, “An FDA-Approved Antifungal, Ketoconazole, and Its Novel Derivative Suppress tGLI1-Mediated Breast Cancer Brain Metastasis by Inhibiting the DNA-Binding Activity of Brain Metastasis-Promoting Transcrip”.

Molecular target: N-tGLI1 (N-terminal truncated GLI1) (UniProt P08151-2 1-390)
Assay: EMSA; no drug; 5X binding buffer as printed: 50 mM Tris pH 7.5, 50 mM NaCl, 200 mM KCl, 5 mM MgCl2, 10 mM EDTA, 5 mM DTT, 250 ug/mL BSA, 25% glycerol; 50 ng/uL poly dI-dC; ~600 ng protein, 5 pmol probe in 20 uL; 20 min on ice (drug tests: 30 min preincubation on ice for GLI1 or at RT for N-tGLI1, then 30 min with probe); 6% TBE gel
Conditions: protein: recombinant; tags: MBP tag cleaved with HRV 3C protease; label: 5' 6-FAM on both strands; blunt

Chain of N-tGLI1 (N-terminal truncated GLI1) (P08151 other isoform, or with tags, fused parts or gaps): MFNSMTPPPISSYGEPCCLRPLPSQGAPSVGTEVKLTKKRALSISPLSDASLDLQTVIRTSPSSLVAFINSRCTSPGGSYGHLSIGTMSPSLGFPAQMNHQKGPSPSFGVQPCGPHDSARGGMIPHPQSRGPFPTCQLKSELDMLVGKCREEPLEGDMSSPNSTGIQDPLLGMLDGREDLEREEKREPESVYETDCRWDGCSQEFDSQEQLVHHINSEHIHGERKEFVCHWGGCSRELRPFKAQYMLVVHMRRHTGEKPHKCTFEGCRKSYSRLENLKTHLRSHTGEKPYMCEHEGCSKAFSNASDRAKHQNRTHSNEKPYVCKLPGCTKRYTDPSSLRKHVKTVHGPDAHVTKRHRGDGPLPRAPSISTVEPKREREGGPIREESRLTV

B1: GLI1/tGLI1 consensus probe (dsDNA)
DNA 1: CGAAGAGACCACCCAGGTAGCT
DNA 2: AGCTACCTGGGTGGTCTCTTCG
  binding result: binds
